Assay [1] addresses T1, Murine B7-H4-Fc (Mouse B7H4 ECD, Fc_6His) (mouse, UniProt Q7TSP5 25-257).
T1 construct: extracellular domain; also called mouse B7-H4-Fc; FcHis6 tagged murine B7-H4
T1 sequence (Q7TSP5 whole entry, looked up): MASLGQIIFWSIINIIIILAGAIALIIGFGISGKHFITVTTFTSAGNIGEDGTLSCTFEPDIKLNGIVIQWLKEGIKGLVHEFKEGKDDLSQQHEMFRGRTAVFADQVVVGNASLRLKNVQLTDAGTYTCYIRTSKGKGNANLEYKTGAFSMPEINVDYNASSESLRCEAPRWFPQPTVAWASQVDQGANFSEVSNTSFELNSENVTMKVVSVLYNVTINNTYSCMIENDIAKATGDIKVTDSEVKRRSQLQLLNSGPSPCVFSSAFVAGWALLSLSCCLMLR
Briefly: HTRF binding, murine IgG1. (In general: In TR-FRET formats the signal depends on donor and acceptor labels being close together.)

For another assay, the target named is T2, huB7-H1 (human, UniProt Q9NZQ7 19-238).
T2 construct: Sourced antigen; construct not described; also called Human B7-H1
Briefly: ELISA, absorbance 450 nm, antigen human B7-H1(ECD) F10H.

The next assay deals with T3, huB7-H3 (human, UniProt Q5ZPR3 29-461, limits assumed).
T3 construct: Sourced antigen; construct not described; also called Human B7-H3
T3 sequence (looked up): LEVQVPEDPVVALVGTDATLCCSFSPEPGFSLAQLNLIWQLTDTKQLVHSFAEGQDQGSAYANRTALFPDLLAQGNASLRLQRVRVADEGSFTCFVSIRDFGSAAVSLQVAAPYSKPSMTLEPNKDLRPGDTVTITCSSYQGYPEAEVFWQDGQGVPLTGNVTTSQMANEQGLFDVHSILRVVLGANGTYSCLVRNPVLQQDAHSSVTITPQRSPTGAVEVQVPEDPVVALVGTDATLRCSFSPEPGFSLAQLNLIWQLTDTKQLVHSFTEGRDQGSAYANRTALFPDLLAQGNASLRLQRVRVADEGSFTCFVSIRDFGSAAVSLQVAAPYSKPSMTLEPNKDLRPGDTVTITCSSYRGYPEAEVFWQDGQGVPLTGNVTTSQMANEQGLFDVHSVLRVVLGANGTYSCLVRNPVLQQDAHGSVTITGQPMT
The assay can be described thus: ELISA, absorbance 450 nm, antigen human B7-H3 (ECD) Fc. On the technique in general: ELISA stands for enzyme-linked immunosorbent assay.

Assay [2] deals with T4, Human B7-H4-Fc (Human B7H4 ECD, Fc_6His) (human).
T4 construct: also called FcHis6 tagged human B7-H4
T4 sequence (Q7Z7D3 whole entry, looked up): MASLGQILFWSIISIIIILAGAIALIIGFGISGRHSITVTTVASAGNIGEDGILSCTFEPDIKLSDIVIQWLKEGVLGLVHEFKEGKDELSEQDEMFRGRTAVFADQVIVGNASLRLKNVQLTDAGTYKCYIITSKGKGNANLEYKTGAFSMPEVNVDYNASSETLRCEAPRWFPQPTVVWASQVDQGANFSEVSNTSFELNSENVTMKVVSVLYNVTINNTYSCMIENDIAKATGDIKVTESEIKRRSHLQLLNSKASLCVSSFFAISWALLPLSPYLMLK
Briefly: HTRF binding, murine IgG1.

The target in a further assay is T5, huBTN2A1 (human, UniProt Q7KYR7 29-248, limits assumed).
T5 construct: Sourced antigen; construct not described; also called Human BTN2A1
T5 sequence (looked up): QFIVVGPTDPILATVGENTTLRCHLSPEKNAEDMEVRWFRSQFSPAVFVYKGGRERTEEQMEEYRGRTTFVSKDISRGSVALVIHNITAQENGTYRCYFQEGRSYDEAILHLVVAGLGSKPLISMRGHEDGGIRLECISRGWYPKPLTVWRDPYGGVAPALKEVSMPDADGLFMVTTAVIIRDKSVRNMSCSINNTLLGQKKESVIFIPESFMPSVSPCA
Briefly: ELISA.

For the next assay, the target named is T6, huBTNL3 (human, UniProt Q6UXE8 18-237, limits assumed).
T6 construct: Sourced antigen; construct not described; also called Human BTNL3
T6 sequence (looked up): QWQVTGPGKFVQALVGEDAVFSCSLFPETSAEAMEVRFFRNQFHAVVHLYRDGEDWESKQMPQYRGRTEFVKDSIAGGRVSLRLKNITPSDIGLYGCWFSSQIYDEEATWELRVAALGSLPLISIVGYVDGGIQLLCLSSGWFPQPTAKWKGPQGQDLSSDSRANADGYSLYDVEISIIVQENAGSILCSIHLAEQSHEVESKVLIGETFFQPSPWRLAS
Briefly: ELISA.

For the next assay, the target named is T7, huBTN3A2 (human, UniProt P78410 30-248, limits assumed).
T7 construct: Sourced antigen; construct not described; also called Human BTN3A2
Briefly: ELISA, absorbance 450 nm, antigen human BTN3A2 GST.

In another assay the target is T8, huBTN1A1 (human, UniProt Q13410 27-242, limits assumed).
T8 construct: Sourced antigen; construct not described; also called Human BTN1A1
T8 sequence (looked up): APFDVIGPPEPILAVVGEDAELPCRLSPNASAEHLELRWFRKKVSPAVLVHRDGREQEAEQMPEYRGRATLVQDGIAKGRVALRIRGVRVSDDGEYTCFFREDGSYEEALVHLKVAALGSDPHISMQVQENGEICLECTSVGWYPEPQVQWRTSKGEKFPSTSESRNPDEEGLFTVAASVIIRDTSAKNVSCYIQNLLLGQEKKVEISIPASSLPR
The assay can be described thus: ELISA, absorbance 450 nm, antigen human BTN1A1 GST.

For assay [3], the target named is T9, Cyno B7-H4-Fc (Cyno B7H4 ECD, FcTM_6His) (cynomolgus monkey).
T9 construct: extracellular domain; also called cynomolgus B7-H4-Fc
Briefly: HTRF binding, murine IgG1.

The next assay deals with T10, huB7-H2 (human, UniProt O75144 19-258).
T10 construct: Sourced antigen; construct not described; also called Human B7-H2
T10 sequence (looked up): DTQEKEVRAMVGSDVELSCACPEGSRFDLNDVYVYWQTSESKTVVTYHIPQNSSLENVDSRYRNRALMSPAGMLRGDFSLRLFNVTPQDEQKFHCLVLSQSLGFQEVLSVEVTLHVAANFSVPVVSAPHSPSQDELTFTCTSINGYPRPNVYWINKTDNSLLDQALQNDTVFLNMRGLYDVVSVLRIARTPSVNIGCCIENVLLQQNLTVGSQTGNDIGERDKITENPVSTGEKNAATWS
Briefly: ELISA, absorbance 450 nm, antigen human B7-H2 (ECD) F10H.

A further assay addresses T11, huHHLA2 (human, UniProt Q9UM44 23-344).
T11 construct: Sourced antigen; construct not described; also called Human HHLA2
T11 sequence (looked up): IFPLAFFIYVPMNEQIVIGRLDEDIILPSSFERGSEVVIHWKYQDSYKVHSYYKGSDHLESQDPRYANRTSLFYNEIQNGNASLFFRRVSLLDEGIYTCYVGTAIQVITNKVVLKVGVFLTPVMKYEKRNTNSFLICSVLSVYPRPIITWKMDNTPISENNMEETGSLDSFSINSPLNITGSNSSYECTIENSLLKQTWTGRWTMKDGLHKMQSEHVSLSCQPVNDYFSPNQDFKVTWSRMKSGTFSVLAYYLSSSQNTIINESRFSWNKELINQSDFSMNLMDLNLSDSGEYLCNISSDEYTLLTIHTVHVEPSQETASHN
Briefly: ELISA, absorbance 450 nm, antigen human HHLA2 GST.

T7 sequence (P78410 30-248 limits assumed): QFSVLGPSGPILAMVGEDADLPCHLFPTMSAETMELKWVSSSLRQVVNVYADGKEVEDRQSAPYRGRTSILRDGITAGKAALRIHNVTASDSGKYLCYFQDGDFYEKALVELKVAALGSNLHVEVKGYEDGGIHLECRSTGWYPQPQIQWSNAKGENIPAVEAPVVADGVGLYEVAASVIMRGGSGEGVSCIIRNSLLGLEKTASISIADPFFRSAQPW
T2 sequence (Q9NZQ7 19-238 limits assumed): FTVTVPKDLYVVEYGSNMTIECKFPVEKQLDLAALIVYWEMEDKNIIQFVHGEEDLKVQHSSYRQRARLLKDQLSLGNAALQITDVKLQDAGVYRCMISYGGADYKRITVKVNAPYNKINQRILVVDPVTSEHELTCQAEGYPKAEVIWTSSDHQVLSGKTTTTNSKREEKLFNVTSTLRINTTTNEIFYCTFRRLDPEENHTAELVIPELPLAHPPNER

B1: ZY0EO5-E07 murine IgG1 (antibody, V domains shown)
VH: QVQLQESGPGLVKPSQTLSLTCTVSGGSISSGGYYWSWIRQHPGKGLEWIGNIYYSGSTYYNPSLKSRVTISVDTSKNQFSLKLSSVTAADTAVYYCAREKALASVIPSGYENYYVVDVWGQGTTVTVSS
VL: DIQLTQSPSFLSASVGGRVTITCWASQGIAGYLAWYQQKPGKAPKLLIYAASTLQSGVPSRFSGSGSGTEFTLTISSLQPEDFATYYCQHLNSYPLTFGGGTKVEIK
notes: also called ZY0E05-E07; E05-E07
The EC50 is the concentration at which the effect is half-maximal. Low readings indicate a more potent agent, high ones a less potent agent. For B1, the EC50 in [1] worked out at 0.73 nM; in [2], 0.68 nM; in assay [3], 0.71 nM. Moreover, the Max in [1] amounted to 1700; in [2], 2150; in assay [3], 1700. Also, the binding result with huB7-H1 is “no binding (tested: 10 µg/ml (antigen))”; with huB7-H3, “no binding”; with huBTN2A1, “no binding”; in the assay with huBTNL3 it was “no binding”; in the assay with huBTN3A2, “no binding (tested: about 10 µg/ml (antigen))”; with huBTN1A1, “no binding (tested: 10 µg/ml (antigen))”. The binding result with huB7-H2 is “no binding (tested: 10 µg/ml (antigen))”; with huHHLA2, “no binding (tested: about 10 µg/ml (antigen))”.

B2: ZY0EP0-C07 murine IgG1 (antibody, V domains shown)
VH: QVQLVESGGVLVKPGGSLRLSCAASGFTLSDYYMSWIRQAPGMGLEWVSYISSSGSTIYYTDSVKGRFTISRDSAKNSLYLQMNSLRAEDTAVYYCARDGVGFDYWGQGTLVTVSS
VL: EIVLTQSPGTLSLFPGERATLSCRASQSVSSSYLAWYQQKPGQSPRLLIYAASSRATGIPDRFSGSGSGTDFTLTISRLEPEDFAVYYCQQYGSSPLYTFGQGTKLEIK
notes: also called ZY0EPO-C07
Consider B2, for which the values for the EC50 in [1], in [2] and in assay [3] were 0.49 nM, 0.95 nM and 1.28 nM, respectively. In addition, the Max stood at 1910 in assay [1], 1740 in assay [2] and 1250 in assay [3]. For the same molecule, the binding result with huB7-H1 is “no binding (tested: 10 µg/ml (antigen))”; in the assay with huB7-H3, “no binding”; with huBTN2A1 it was “no binding”; with huBTNL3, “no binding”; in the assay with huBTN3A2, “no binding (tested: about 10 µg/ml (antigen))”; with huBTN1A1, “no binding (tested: 10 µg/ml (antigen))”. For the same molecule, the values for the binding result in the assay with huB7-H2 and with huHHLA2 were “no binding (tested: 10 µg/ml (antigen))” and “no binding (tested: about 10 µg/ml (antigen))”, respectively.

The record behind these values is patent US20240239894A1 (AstraZeneca / MedImmune, published 2024).
